According to PMC2714593, “Insights into the role of Val45 and Gln182 of Escherichia coli MutY in DNA substrate binding and specificity”:
Substitutions are numbered along the chain they refer to.

Experiments:
EcMutY Q182L = target: T1, EcMutY Q182L (Escherichia coli, UniProt P17802 1-350, Q182L); experiment: EMSA; 20 mM Tris-HCl pH 7.6, 80 mM NaCl, 1 mM DTT, 1 mM EDTA, 2.9% glycerol, 20 ng poly dI/dC per 20 ul, 0.09 nM labeled DNA, 30 min at 30 C; 4% PAGE in TBE; settings: protein: recombinant; label: 5'-32P on X strand; blunt; T/G mismatch at strand 1 position 22
T1 sequence: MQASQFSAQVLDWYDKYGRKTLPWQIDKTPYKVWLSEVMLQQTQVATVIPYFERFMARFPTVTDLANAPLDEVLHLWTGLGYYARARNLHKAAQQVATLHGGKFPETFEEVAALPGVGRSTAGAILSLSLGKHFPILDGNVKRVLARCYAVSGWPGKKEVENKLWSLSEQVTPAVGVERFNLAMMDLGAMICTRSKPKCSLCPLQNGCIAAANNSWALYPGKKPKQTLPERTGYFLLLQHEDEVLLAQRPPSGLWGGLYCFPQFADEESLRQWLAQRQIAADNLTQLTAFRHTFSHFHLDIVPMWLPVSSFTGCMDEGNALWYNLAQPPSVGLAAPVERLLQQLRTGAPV

EcMutY V45A = target: T2, EcMutY V45A (Escherichia coli, UniProt P17802 1-350, V45A); experiment: as above; settings: protein: recombinant; label: 5'-32P on X strand; blunt; T/G mismatch at strand 1 position 22
T2 sequence: T1 sequence with V45A, L182Q

B1: T/G 44-mer (dsDNA)
DNA 1: AATTGGGCTCCTCGAGGAATTTGCCTTCTGCAGGCATGCCCCGG
DNA 2: CCGGGGCATGCCTGCAGAAGGCGAATTCCTCGAGGAGCCCAATT
Kd (EcMutY Q182L): 0.043 ± 0.014 nM
Kd (EcMutY V45A): 0.011 ± 0.004 nM
